In patent US20070014791A1, “Rage-related methods and copositions for treating glomerular injury” (priority 2003, published 2007):

Legend:
[1] = system: male BALB/c mice; settings: ADR 10.5 mg/kg IV, up to 6 weeks; cited from earlier work
[2] = system: male BALB/c mice treated with adriamycin (ADR); test: ADR-induced glomerular injury in BALB/c mice: kidney weight and mesangial morphometry (PAS staining); type: in vivo, mouse; settings: for kidney weight/body weight ratio: sRAGE 100 μg per day once daily, vs. PBS-treated mice; for mesangial area / mesangial/glomerular area: sRAGE 100 μg per day, compared with PBS treatment, PAS staining
Experimental: (§1) Male BALB/c mice at the age of six weeks received one intravenous dose of adriamycin (ADR), 10.5 mg/kg. Immediately after injection of ADR, mice received once daily administration of murine soluble RAGE, the extracellular ligand binding domain of RAGE, 100 μg per day, beginning immediately at the time of ADR treatment, and continued until the day of sacrifice.
Dissected kidneys were fixed in buffered formalin (10%) overnight and then routinely processed for light microscopy. Fixed paraffin-embedded tissues were cut (3 μm thick) and mounted on slides coated with 3-aminopropyltriethoxy silane (Sigma) followed by incubation at 37° C. overnight. Light microscopic views after staining with periodic acid Schiff (PAS) were scanned into a computer and the quantification of areas of mesangial matrix and glomerulus was performed using a Zeiss microscope and image analysis system (MediaCybernetics). To calculate mesangial area, only nuclei-free regions were included. Forty glomeruli from each animal were selected at random on the stained sections (20 from the outer region and 20 from the inner region). Morphometry was performed by investigators blinded to the experimental protocol.
To address the concept that RAGE may be involved in the pathogenesis of ADR-mediated FSGS, a single injection of ADR, 10.5 mg/kg, to male BALB/c mice at age 6 weeks was administered. ADR-treated mice received once daily administration of murine soluble RAGE, the extracellular ligand binding domain of RAGE, 100 μg per day, beginning immediately at the time of ADR treatment, and continued until the day of sacrifice. Other ADR-treated mice received vehicle, PBS.

[3] = system: male BALB/c mice treated with adriamycin (ADR); test: ADR-induced albuminuria in BALB/c mice: 24 hr urine albumin/creatinine; type: in vivo, mouse; settings: sRAGE 100 μg per day, mean±SE
Experimental: as §1
Twenty-four hour urine collection was obtained from each animal using metabolic cages. Urine albumin and creatinine were determined using Albuwell M and creatinine assays from Exocell (Philadelphia, Pa.) according to the manufacturer's instructions.
The key test of these concepts was the degree to which blockade of RAGE would suppress the development of albuminuria. Mice were placed in metabolic cages and 24 hr urine collected. Urine levels of albumin and creatinine were determined; results are reported as μg albumin/μg creatinine. […] At six weeks, the results were similarly striking.

Row | Molecule | mice that developed hematuria [1] | mice that developed leukocyturia [1] | kidney weight/body weight ratio ([2]; 2 weeks after ADR 10.5 mg/kg) | mesangial area ([2]; 2 weeks after ADR) | mesangial/glomerular area ([2]; 2 weeks after ADR) | kidney weight/body weight ratio ([2]; 6 weeks after ADR 10.5 mg/kg) | mesangial area ([2]; 6 weeks after ADR) | mesangial/glomerular area ([2]; 6 weeks after ADR) | urine albumin/creatinine ([3]; 2 weeks after ADR, p<0.05 vs. PBS-treated mice receiving ADR (809.55±365.85)) | urine albumin/creatinine ([3]; 6 weeks after ADR, p<0.01 vs PBS/ADR (1,362.96±987.97))
1 | COc1cccc2c1C(=O)c1c(O)c3c(c(O)c1C2=O)C[C@@](O)(C(=O)CO)C[C@@H]3O[C@H]1C[C@H](N)[C@H](O)[C@H](C)O1 [ADR, adriamycin] | 35.7% | 53.6% |  |  |  |  |  |  |  | 
2 | sRAGE: murine soluble RAGE, the extracellular ligand binding domain of RAGE (protein, UniProt Q62151 23-340, looked up, extracellular domain) extracellular domain: GQNITARIGEPLVLSCKGAPKKPPQQLEWKLNTGRTEAWKVLSPQGGPWDSVARILPNGSLLLPATGIVDEGTFRCRATNRRGKEVKSNYRVRVYQIPGKPEIVDPASELTASVPNKVGTCVSEGSYPAGTLSWHLDGKLLIPDGKETLVKEETRRHPETGLFTLRSELTVIPTQGGTHPTFSCSFSLGLPRRRPLNTAPIQLRVREPGPPEGIQLLVEPEGGIVAPGGTVTLTCAISAQPPPQVHWIKDGAPLPLAPSPVLLLPEVGHEDEGTYSCVATHPSHGPQESPPVSIRVTETGDEGPAEGSVGESGLGTLA |  |  | significantly decreased | significantly decreased | significantly decreased | significantly decreased | significantly decreased | significantly decreased | 191.08±49.93 μg albumin/μg creatinine | 249.76±283.19 μg albumin/μg creatinine
